B1: KIT, P10721 (peptide)
chain: SQPLLVHDDV
B2: JAM1, Q9Y624 (peptide)
chain: EFKQTSSFLV

Tests used:
Assay in all cases: holdup assay
Parameters in all cases: key: below the threshold = too weak to quantify, mostly under pKd 3.1 to 4
Settings in all cases: plain residues with an end cap or a label only (N-terminal biotin on a linker: ado-ado)
[1] = target: ARHGEF12, Q9NZN5-2
[2] = target: DLG1_2, Q12959
[3] = target: T1, DLG3_1, Q92796
T1 sequence (Q92796 125-227, limits assumed, looked up): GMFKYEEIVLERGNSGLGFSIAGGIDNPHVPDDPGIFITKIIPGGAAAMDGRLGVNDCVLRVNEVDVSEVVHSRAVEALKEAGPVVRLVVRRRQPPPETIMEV

[4] = target: T2, DLG3_3, Q92796
T2 sequence (Q92796 374-475, limits assumed, looked up): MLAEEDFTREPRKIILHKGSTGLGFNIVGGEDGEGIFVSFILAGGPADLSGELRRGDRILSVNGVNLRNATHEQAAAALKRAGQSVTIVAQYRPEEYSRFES

[5] = target: DLG5_1, Q8TDM6
[6] = target: T3, DVL3, Q92997
T3 sequence (Q92997 244-331, limits assumed, looked up): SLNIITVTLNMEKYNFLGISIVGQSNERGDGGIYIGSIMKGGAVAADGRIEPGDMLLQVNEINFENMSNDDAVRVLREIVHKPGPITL

[7] = target: FRMPD2_1, Q68DX3
[8] = target: GOPC, Q9HD26
[9] = target: GORASP2, Q9H8Y8
[10] = target: GRASP, Q7Z6J2
[11] = target: GRID2IP_1, A4D2P6
[12] = target: Inadl_1, Q8NI35
[13] = target: Inadl_10, Q8NI35
[14] = target: Inadl_5, Q8NI35
[15] = target: Inadl_9, Q8NI35
[16] = target: T4, LIN7A, O14910
T4 sequence (O14910 103-200, limits assumed, looked up): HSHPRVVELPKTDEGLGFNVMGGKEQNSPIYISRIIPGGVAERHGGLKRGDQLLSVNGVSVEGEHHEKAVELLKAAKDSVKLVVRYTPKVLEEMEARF

[17] = target: T5, LIN7B, Q9HAP6
T5 sequence (Q9HAP6 88-185, limits assumed, looked up): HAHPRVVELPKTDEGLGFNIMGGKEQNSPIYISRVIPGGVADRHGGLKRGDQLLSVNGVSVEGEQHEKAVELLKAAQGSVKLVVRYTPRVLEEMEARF

[18] = target: LNX1_1, Q8TBB1
[19] = target: MAGI2_2, Q86UL8
[20] = target: MAGI2_6, Q86UL8
[21] = target: MAST2, Q6P0Q8
[22] = target: T6, MPDZ_12, O75970
T6 sequence (O75970 1857-1958, limits assumed, looked up): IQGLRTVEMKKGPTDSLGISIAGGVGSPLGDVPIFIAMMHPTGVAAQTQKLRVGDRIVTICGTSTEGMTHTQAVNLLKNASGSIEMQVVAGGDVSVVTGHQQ

[23] = target: NHERF2_2, Q15599
[24] = target: NHERF4_4, Q86UT5
[25] = target: T7, PCLO, Q9Y6V0
T7 sequence (Q9Y6V0 4491-4600, limits assumed, looked up): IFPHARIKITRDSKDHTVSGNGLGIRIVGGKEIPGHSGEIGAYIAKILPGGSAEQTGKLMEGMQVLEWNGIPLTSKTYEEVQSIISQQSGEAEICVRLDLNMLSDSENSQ

[26] = target: T8, PTPN13_1, Q12923
T8 sequence (Q12923 1088-1188, limits assumed, looked up): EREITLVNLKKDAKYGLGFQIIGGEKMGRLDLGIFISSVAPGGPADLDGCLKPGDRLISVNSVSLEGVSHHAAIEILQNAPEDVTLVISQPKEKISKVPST

[27] = target: T9, SHANK1, Q9Y566
T9 sequence (Q9Y566 658-767, limits assumed, looked up): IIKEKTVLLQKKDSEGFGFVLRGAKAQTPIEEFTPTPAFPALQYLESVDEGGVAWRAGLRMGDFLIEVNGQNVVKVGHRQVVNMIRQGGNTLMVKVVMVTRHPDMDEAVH

[28] = target: T10, TX1BP3, O14907
T10 sequence (O14907 10-122, limits assumed, looked up): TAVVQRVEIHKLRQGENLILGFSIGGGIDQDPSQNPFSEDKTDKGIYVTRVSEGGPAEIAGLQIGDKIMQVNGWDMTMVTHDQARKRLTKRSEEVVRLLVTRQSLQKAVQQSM

Chain of MAGI2_6, Q86UL8 (Q86UL8 1141-1229): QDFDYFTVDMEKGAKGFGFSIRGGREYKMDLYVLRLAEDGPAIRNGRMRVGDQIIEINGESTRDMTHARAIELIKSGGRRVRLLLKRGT
Chain of LNX1_1, Q8TBB1 (Q8TBB1 261-371): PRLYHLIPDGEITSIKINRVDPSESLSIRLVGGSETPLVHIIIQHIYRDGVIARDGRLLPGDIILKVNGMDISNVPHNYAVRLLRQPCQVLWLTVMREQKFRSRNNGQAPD
Chain of Inadl_10, Q8NI35 (Q8NI35 1673-1763): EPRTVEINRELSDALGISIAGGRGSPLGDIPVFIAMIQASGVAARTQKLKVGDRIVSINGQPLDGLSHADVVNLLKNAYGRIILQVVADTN
Chain of MAGI2_2, Q86UL8 (Q86UL8 410-522): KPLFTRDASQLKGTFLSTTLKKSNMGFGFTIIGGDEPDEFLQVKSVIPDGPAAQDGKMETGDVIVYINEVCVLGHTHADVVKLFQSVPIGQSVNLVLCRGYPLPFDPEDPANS
Chain of NHERF4_4, Q86UT5 (Q86UT5 464-550): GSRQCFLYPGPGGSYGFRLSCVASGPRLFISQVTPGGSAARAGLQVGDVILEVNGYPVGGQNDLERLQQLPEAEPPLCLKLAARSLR
Chain of GRASP, Q7Z6J2 (Q7Z6J2 96-193): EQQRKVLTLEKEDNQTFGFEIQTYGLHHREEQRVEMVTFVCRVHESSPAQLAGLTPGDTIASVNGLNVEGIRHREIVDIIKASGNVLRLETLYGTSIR
Chain of GRID2IP_1, A4D2P6 (A4D2P6 1-87): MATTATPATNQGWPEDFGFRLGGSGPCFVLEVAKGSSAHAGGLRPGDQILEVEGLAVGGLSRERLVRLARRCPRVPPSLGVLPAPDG
Chain of NHERF2_2, Q15599 (Q15599 142-238): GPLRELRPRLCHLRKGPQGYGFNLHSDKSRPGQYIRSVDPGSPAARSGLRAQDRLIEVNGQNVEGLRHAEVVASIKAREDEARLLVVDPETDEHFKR
Chain of ARHGEF12, Q9NZN5-2 (Q9NZN5 other isoform, or with tags, fused parts or gaps): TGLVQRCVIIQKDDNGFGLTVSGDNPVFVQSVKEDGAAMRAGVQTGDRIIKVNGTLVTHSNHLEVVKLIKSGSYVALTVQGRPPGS
Chain of DLG5_1, Q8TDM6 (Q8TDM6 617-713): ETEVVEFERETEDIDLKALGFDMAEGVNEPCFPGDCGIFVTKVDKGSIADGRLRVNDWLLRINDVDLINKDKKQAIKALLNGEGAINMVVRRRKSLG
Chain of FRMPD2_1, Q68DX3 (Q68DX3 770-861): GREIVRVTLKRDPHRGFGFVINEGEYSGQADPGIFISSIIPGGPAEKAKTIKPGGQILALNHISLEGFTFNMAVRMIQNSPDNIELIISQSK
Chain of DLG1_2, Q12959 (Q12959 314-412): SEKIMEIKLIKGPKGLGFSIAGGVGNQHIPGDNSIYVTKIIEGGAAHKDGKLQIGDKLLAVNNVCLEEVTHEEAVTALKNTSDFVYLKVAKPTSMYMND
Chain of Inadl_9, Q8NI35 (Q8NI35 1530-1615): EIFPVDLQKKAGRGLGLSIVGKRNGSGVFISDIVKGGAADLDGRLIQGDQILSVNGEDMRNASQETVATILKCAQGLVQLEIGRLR
Chain of Inadl_5, Q8NI35 (Q8NI35 673-780): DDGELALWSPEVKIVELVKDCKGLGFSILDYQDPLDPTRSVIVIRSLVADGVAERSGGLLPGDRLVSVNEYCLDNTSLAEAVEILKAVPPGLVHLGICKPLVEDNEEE
Chain of Inadl_1, Q8NI35 (Q8NI35 113-229): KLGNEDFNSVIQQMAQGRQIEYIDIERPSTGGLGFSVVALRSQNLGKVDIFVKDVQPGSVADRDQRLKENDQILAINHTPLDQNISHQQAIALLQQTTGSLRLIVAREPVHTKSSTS
Chain of MAST2, Q6P0Q8 (Q6P0Q8 1099-1202): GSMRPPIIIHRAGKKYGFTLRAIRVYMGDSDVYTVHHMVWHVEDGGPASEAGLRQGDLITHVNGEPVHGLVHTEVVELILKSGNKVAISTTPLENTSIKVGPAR

| Binder | pKd [1] | pKd [2] | pKd [3] | pKd [4] | pKd [5] | pKd [6] | pKd [7] | pKd [8] | pKd [9] | pKd [10] | pKd [11] | pKd [12] | pKd [13] | pKd [14] | pKd [15] | pKd [16] | pKd [17] | pKd [18] | pKd [19] | pKd [20] | also measured |
| --- | --- | --- | --- | --- | --- | --- | --- | --- | --- | --- | --- | --- | --- | --- | --- | --- | --- | --- | --- | --- | --- |
| B1 | below the threshold | below the threshold | below the threshold | below the threshold | below the threshold | below the threshold | below the threshold | below the threshold | below the threshold | below the threshold | below the threshold | below the threshold | below the threshold | below the threshold | below the threshold | below the threshold | below the threshold | below the threshold | below the threshold | below the threshold | pKd [21]: below the threshold; pKd [22]: below the threshold; pKd [23]: below the threshold; pKd [24]: below the threshold; pKd [25]: below the threshold; pKd [26]: below the threshold; pKd [27]: below the threshold; pKd [28]: below the threshold |
| B2 | below the threshold | below the threshold | below the threshold | below the threshold | below the threshold | below the threshold | 3.75 | below the threshold | 4.83 | 3.56 | below the threshold | below the threshold | below the threshold | 3.53 | 3.86 | below the threshold | 3.88 | 3.6 | 3.72 | below the threshold | pKd [21]: below the threshold; pKd [22]: below the threshold; pKd [23]: below the threshold; pKd [24]: below the threshold; pKd [25]: below the threshold; pKd [26]: below the threshold; pKd [27]: below the threshold; pKd [28]: below the threshold |

From paper PMC9482650, “Quantitative fragmentomics allow affinity mapping of interactomes” (Nature Communications, 2022)
